In article PMC1592478:

Target: human syndecan-1 with C-terminal HA tag (Syn-1-HA), stably expressed on GM00701 cells (human) (UniProt P18827)
Assay: radioligand binding; ^125I-apoE-VLDL (2 μg/ml; in Figure 2C supplemented with 3 μg/ml apoE) on GM00701 or GM00701/Syn-1-HA cells, 4°C, 3 h, 20 mM Hepes pH 7.4, 150 mM NaCl, 2 mM CaCl2, 1% BSA; without or with unlabeled apoE-VLDL (100 μg/ml); specific binding = total minus non-competable

UniProt P18827, sequence (P18827 23-310): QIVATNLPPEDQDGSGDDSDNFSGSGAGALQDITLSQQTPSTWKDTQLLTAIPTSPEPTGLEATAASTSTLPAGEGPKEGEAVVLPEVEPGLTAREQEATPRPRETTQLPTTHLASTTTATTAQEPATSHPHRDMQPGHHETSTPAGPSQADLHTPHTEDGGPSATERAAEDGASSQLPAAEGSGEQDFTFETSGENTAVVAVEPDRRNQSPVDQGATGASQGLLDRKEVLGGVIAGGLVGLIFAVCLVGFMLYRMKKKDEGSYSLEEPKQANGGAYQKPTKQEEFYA

Substance: apoE-VLDL (very low density lipoprotein particles with apoB100 and apoE, from rabbit plasma) (from UniProt P18287 19-311; P17165 1-144) (complex)
- fold increase in specific binding over control GM00701 cells: 5 fold
